# In patent publication US20070207086A1 (published 2007):
# Positions of bridges follow the written chain, without caps; N, C: chain ends. No end group written: not given here.
# B1: AHNP analogue 5, FCDGFYACYMDVK-NH2 (peptide)
# peptide: FCDGFYACYMDVK-NH2
# modifications: disulfide 2-8 (inferred)
# notes: Lys added as C-terminal residue; also called peptide 5
# B2: AHNP (anti-HER2/neu peptide mimetic), peptide 1, FCDGFYACYMDV-NH2 (peptide)
# peptide: FCDGFYACYMDV-NH2
# modifications: disulfide 2-8
# notes: Designed from the CDR-H3 loop of rhumAb 4D5; also called anti-HER2 peptide
# B3: AHNP analogue 6, FCDGFYACYKDV-OH (peptide)
# peptide: FCDGFYACYKDV-OH
# modifications: disulfide 2-8 (inferred)
# notes: Met of peptide 2 replaced by Lys; also called peptide 6
# B4: AHNP analogue 3, YCDGFYACYMDV-NH2 (peptide)
# peptide: YCDGFYACYMDV-NH2
# modifications: disulfide 2-8 (inferred)
# notes: N-terminal Phe of AHNP replaced with Tyr; also called peptide 3
# B5: AHNP analogue 2, FCDGFYACYMDV-OH (cyclic) (peptide)
# peptide: FCDGFYACYMDV-OH
# modifications: disulfide 2-8 (inferred)
# notes: also called peptide 2
# B6: AHNP analogue 7, GFCDGFYACYMDV-OH (peptide)
# peptide: GFCDGFYACYMDV-OH
# modifications: disulfide 3-9 (inferred)
# notes: Gly placed at the N-terminus before Phe1; also called peptide 7
# B7: AHNP analogue 8, FCGDGFYACYMDV-OH (peptide)
# peptide: FCGDGFYACYMDV-OH
# modifications: disulfide 2-9 (inferred)
# notes: First AHNP analogue designed; has one more turn Gly than peptide 2; also called peptide 8
# B8: AHNP analogue 9, FCDGFYACYMDV-OH (linear, not cyclized) (peptide)
# peptide: FCDGFYACYMDV-OH
# modifications: cysteine pairing not given here
# notes: also called peptide 9; linear analogue 9
# Target: T1, Recombinant purified HER2 receptor composed of the ectodomain of HER2 fused to the Fc of human IgG (human, UniProt P04626 23-652, limits assumed)
# T1 construct: extracellular domain; Provided by Dr. Che Law, Xcyte Therapeutics; amine-coupled to the Biacore chip (3500 RU); also called immobilized HER2; p185; not shown: Fc of human IgG
# Assay: Biacore SPR, HER2 ectodomain-Fc immobilized, peptide as analyte
# Method: (§1) Binding experiments were performed with the surface plasmon resonance based biosensor instrument Biacore 3000 (Biacore AB, Uppsala, Sweden) at 25° C. Recombinant purified HER2 receptor composed of the ectodomain of HER2 fused to the Fc of human IgG was provided by Dr. Che Law, Xcyte Therapeutics, Seattle, Wash. Immobilization of HER2 in the sensor surface was performed following the standard amine coupling procedure according to manufacturer's instructions. Briefly, 35 μL of a solution containing 0.2M N-ethyl-N-(dimethylaminopropyl) carbodiimide (EDC) and 0.05 M N-hydroxysuccinimide (NHS) were injected at a flow rate of 5 μL/min to activate carboxyl groups on the sensor chip surface. HER2 (40 ng/mL in 10 mM NaOAc buffer, pH 5.0) was flowed over the chip surface at a flow rate of 20 μL/min until the desired level bound protein was reached. Unreacted protein washed out and unreacted activated groups were blocked by the injection of 35 μL of 1 M ethanolamine at 5 μL/min. […] A reference surface was generated simultaneously under the same conditions but without HER2 injection and used as a blank to correct for instrument and buffer artifacts. Peptides were injected at variable concentrations at 20 μL/min flow rate and binding to the HER2 receptor immobilized on the chip was monitored in real time. Each sensorgram consists of an association phase (first 240s), reflecting binding of the injected peptide to the receptor, followed by a dissociation phase (300s), during which the running buffer is passed over the chip and the bound peptide is being washed off the receptor surface.
Binder,Kd [nM],koff [s⁻¹],kon [M⁻¹ s⁻¹]
B1,830,0.000512,617
B2,320,0.000453,1410
B3,5700,0.00125,219
B4,150,0.000294,1960
B5,650,0.000643,990
B6,730,0.000808,1110
B7,760,0.000701,922
B8,3560,0.00106,298

# Target: T1, Recombinant purified HER2 receptor …
# Assay: Biacore competition, AHNP preinjected 0-90 µM, then 1 nM rhumAb 4D5 (competitor) on immobilized HER2-Fc; initial rate of antibody binding
# Method: as §1, with “Each sensorgram consists of an association phase (first 240s), reflecting binding of the injected peptide to the receptor, followed by a dissociation phase (300s), during which the running buffer is passed over the chip and the bound peptide is being washed off the receptor surface.” left out
row,Binder,IC50 [nM]
1,B2,3400

# Target: human HER2 receptor overexpressed on T6-17 cells (NIH3T3-derived) (human, UniProt P04626 23-1255)
# Assay: cell-based or functional assay
row,Binder,"% inhibition (inhibition of T6-17 cell proliferation in MTT assays, 1 µg/mL peptide) [%]"
1,B2,35.5
2,B3,8.4
3,B4,59.6
4,B5,22.3
5,B7,18.4
6,B8,12.8

# Target: T1, Recombinant purified HER2 receptor …
# Assay: Biacore SPR, immobilized HER2-Fc
# Method: as §1
Binder,fold increase in binding affinity against peptide 2 [fold],fold decrease in affinity (Lys substituted for Met) [fold],fold improvement in binding (Phe replaced with Tyr) [fold],fold higher affinity than the linear analogue 9 [fold]
B2,> 2,,,
B3,,8.8,,
B4,,,> 2,
B5,,,,> 5
